For the assay, the target named is T1, Cathepsin G.
T1 sequence (P08311 21-244, species assumed, looked up): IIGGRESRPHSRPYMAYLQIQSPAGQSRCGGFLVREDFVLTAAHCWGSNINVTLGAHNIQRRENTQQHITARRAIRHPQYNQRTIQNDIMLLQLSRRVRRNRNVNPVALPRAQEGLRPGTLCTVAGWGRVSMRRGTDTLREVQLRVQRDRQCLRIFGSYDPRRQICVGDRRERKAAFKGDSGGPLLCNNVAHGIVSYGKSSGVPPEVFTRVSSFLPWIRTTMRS
In words: cell-based or functional assay.

B1: recombinant Serpinb3a (mouse-derived), 6×His-tagged, produced in E. coli (other)
chain: HHHHHHMHLFAEATTKFTLELYRQLRESDNNIFYSPISMMTALAMLQLGAKGNTEKQIEKVLQFNETTKKTTEKSAHCHDEENVHEQFQKLMTQLNKSNDAYDLKAANSIYGAKGFPFVQTFLEDIKEYYQANVESLDFEHAAEESEKKINSWVESQTNGKIKDLFPNGSLNRSTIMVLVNAVYFKGQWNHKFDEKHTTEEKFWLNKNTSKPVQMMKQNIEFNFMFLEDVQAKIVEIPYKGKELSMIVLLPVEINGLKQLEEQLTADKLLEWTRAENMHMTELYLSLPRFKVDEKYDLPIPLEHMGMVDAFDPQKADFSGMSSTQGLVVSKVLHKSFVEVNEEGTEAAAATGVEVSLTSAQIAEDFCCDHPFLFFIIHRKTNSILFFGRISSP
With B1, the “inhibitory stoichiometry (A/A0 (405 nm) vs. time)” value was 1 inhibitor:enzyme ratio.

Values taken from US20260116925A1 (ARIZONA BOARD OF REGENTS ON BEHALF OF ARIZONA STATE …, published 2026).
